Km data for 2 compounds are collected here from paper PMC5356443, “Structural, mechanistic and functional insight into gliotoxin bis-thiomethylation in Aspergillus fumigatus” (Open Biology, 2017).

In data set [1] the test system is [H][C@]12C(=CC=C[C@@H]1O)C[C@@]1(S)C(=O)N(C)[C@@](S)(CO)C(=O)N12. Kind of data set: RP-HPLC methyltransferase assay with purified enzyme, Km determination. The note with it: SAM. Type of data set: biochemical, Aspergillus fumigatus.
Data set [2] deals with GtmA (gliotoxin S-methyltransferase, TmtA) (Aspergillus fumigatus, UniProt Q4X158). The data set is described as above. Type of data set: biochemical.
Sequence of GtmA (gliotoxin S-methyltransferase, TmtA) (Q4X158 whole entry): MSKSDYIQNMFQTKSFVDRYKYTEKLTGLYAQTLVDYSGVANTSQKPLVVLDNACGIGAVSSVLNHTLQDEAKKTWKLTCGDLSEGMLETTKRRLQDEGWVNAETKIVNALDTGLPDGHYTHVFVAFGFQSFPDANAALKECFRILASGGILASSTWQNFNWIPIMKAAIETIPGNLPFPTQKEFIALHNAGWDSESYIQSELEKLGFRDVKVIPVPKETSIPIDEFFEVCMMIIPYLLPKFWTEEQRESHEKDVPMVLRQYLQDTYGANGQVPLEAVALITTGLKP

A word on the Km: it is the concentration of substrate that gives half-maximal velocity.

As for “GtmA (gliotoxin S-methyltransferase, TmtA) (Aspergillus fumigatus Af293)”, the Michaelis-Menten constant (Km) in data set [1] worked out at 38.62 µM.
`CS[C@@]12CC3=CC=C[C@H](O)[C@H]3N1C(=O)[C@](S)(CO)N(C)C2=O` [MmGT, monomethylgliotoxin]: in data set [2], the Km was found to be 184 µM.
